{"source": "IntAct's records for PubMed 18835279", "parents": {"B1": {"name": "Tax1-binding protein 3 (Mus musculus), Q9DBG9 (parent)", "chain": "MSYTPGQPVTAVVQRVEIHKLRQGENLILGFSIGGGIDQDPSQNPFSEDKTDKGIYVTRVSEGGPAEIAGLQIGDKIMQVNGWDMTMVTHDQARKRLTKRSEEVVRLLVTRQSLQKAVQQSMLS"}}, "data": [{"variants_of": "B1", "conditions": "with ctnb1_human CTNNB1, P35222", "values": [{"variant": "MSYTPGQPVTAVVQRVEIHKLRQGENLILGFSIGGGIDQDPSQNAFSEDKTDKGIYVTRVSEGGPAEIAGLQIGDKIMQVNGWDMTMVTHDQARKRLTKRSEEVVRLLVTRQSLQKAVQQSMLS", "note": "[P45A]", "effect of a mutation on the interaction": "decreasing interaction"}, {"variant": "MSYTPGQPVTAVVQRVEIHKLRQGENLILGFSIGGGIDQDPSQNSFSEDKTDKGIYVTRVSEGGPAEIAGLQIGDKIMQVNGWDMTMVTHDQARKRLTKRSEEVVRLLVTRQSLQKAVQQSMLS", "note": "[P45S]", "effect of a mutation on the interaction": "decreasing interaction"}]}, {"variants_of": "B1", "conditions": "with ctnb1_human CTNNB1, P35222", "remark": "another data set of the same source", "values": [{"variant": "MSYTPGQPVTAVVQRVEIHKLRQGENLILGFSIGGGIDQDPSQNAFSEDKTDKGIYVTRVSEGGPAEIAGLQIGDKIMQVNGWDMTMVTHDQARKRLTKRSEEVVRLLVTRQSLQKAVQQSMLS", "note": "[P45A]", "effect of a mutation on the interaction": "increasing interaction"}]}]}
